Test results: paper PMC2266626

How the values were obtained:
Assay in all cases: FRET or BRET
YFP-GKC (rat) = target: YFP-GKC (rat)
YFP-GKC[trunc] (rat) = target: YFP-GKC[trunc] (rat)
YFP-α1C (α1C[1671]) = YFP-α1C (α1C[1671]) (UniProt P15381)
YFP-GKC[ΔPYDVV] (rat) = target: YFP-GKC[ΔPYDVV] (rat)

Row | FRET ratio (FR) (YFP-GKC (rat)) | K d,EFF (relative dissociation constant) (YFP-GKC (rat)) | effective FRET efficiency (E EFF) (YFP-GKC (rat)) [%] | FRET ratio (FR) (YFP-GKC[trunc] (rat)) | K d,EFF (relative dissociation constant) (YFP-GKC[trunc] (rat)) | effective FRET efficiency (E EFF) (YFP-GKC[trunc] (rat)) [%] | FRET ratio (FR) (YFP-α1C (α1C[1671])) | K d,EFF (relative dissociation constant) (YFP-α1C (α1C[1671])) | FRET ratio (FR) (YFP-GKC[ΔPYDVV] (rat)) | effective FRET efficiency (E EFF) (YFP-GKC[ΔPYDVV] (rat)) [%] | Substance
1 | 2.8 | 1870 | 10.2 | 3.7 | 3090 | 15.5 | 1.68 | 11700 |  |  | CFP-NSH3 (domain or fragment)
2 | 5.4 |  | 25.6 |  |  |  |  |  | 5.5 | 26.1 | CFP-α1C[I-II loop] (domain or fragment)
